IntAct's records for PubMed 20869963

B1: Protein Rex (Human T-cell leukemia virus 1 (strain Japan ATK-1 subtype A)), P0C205 (parent)
chain: MPKTRRRPRRSQRKRPPTPWPTSQGLDRVFFSDTQSTCLETVYKATGAPSLGDYVRPAYIVTPYWPPVQSIRSPGTPSMDALSAQLYSSLSLDSPPSPPREPLRPSRSLPRQSLIQPPTFHPPSSRPCANTPPSEMDTWNPPLGSTSQPCLFQTPDSGPKTCTPSGEAPLSACTSTSFPPPSPGPSCPT

Variants of: B1
Settings: with dicer_human DICER1, Q9UPY3

| Variant | effect of a mutation on the interaction |
| --- | --- |
| R6D | decreasing interaction |
| R5D | decreasing interaction |
| R7D | decreasing interaction |

Variants of: B1
Settings: with dicer_human DICER1, Q9UPY3
Remark: another data set of the same source

| Variant | effect of a mutation on the interaction |
| --- | --- |
| H121L | disrupting interaction |
| T119D | disrupting interaction |
| F120L | disrupting interaction |

Variants of: B1
Settings: with dicer_human DICER1, Q9UPY3
Remark: another data set of the same source

| Variant | effect of a mutation on the interaction |
| --- | --- |
| L90A | decreasing interaction |
| L92A | decreasing interaction |

Variants of: B1
Settings: with dicer_human DICER1, Q9UPY3
Remark: another data set of the same source

| Variant | effect of a mutation on the interaction |
| --- | --- |
| Y64D | disrupting interaction |
| W65L | disrupting interaction |
